Consider one substance from publication PMC4776207.

For the assay, the target named is ISAV s8ORF2 protein (protein encoded by the largest open reading frame of gene segment 8) (infectious salmon anaemia virus (ISAV), strain Glesvaer/2/90). The assay can be described thus: non-reducing SDS-PAGE with western blot.

Regarding “ISAV s8ORF2 protein (protein encoded by the largest open reading frame of gene segment 8) (natural protein)”, the stoichiometry N came out at 2.
